The values that follow come from US11932672B2, “Fermentation process” (Syngulon S.A., priority 2017, dated 2024).

Entries after “also recorded” stand apart in the source; their conditions may differ.

For one data set, the system named is Candida species. The conditions noted are these: cited from earlier work.
The test system of data set [1] is fungal microbial organism. The conditions noted are these: cited from earlier work.
The next data set deals with bacteriocin B17. The experiment in a line: Resistance to B17 conferred by plasmid-expressed immunity gene (selection on plates containing B17). The format is cell-based, BL21(DE3). An excerpt: We have separated genes from B17 immunity structures and cloned these into vectors behind an inducible promoter (Ptac).
We have separated the genes from B17 immunity structures and cloned them into vectors behind an inducible promoter (Ptac).
We inserted the B17 McbG immunity structure gene and cloned the latter into vectors behind the weak constitutive promoter (P24). A second construct was generated with a P24 LacO hybrid promoter which is an inducible promoter repressed in the presence of lad and active in presence of IPTG.
The BL21(DE3) strain was transformed with vector pMcbG1.0 or pMcbG1.1 (see FIG. 3 or 4). After transformation, transformants were selected on plates containing B17. Isolated colonies were re-grown and the plasmid they contained was analyzed by gel electrophoresis after treatment with relevant restriction enzymes.

For another data set, the system named is bacteriocin C7. The experiment in a line: Resistance to C7 conferred by plasmid-expressed immunity gene (vector selection marker). The format is cell-based. The conditions noted are these: gene expressed from plasmid (pBACT2.0, pBACT5.0). An excerpt: The vector used is pBACT2.0 (FIG. 6, SEQ ID NO: 713).
(§1) The vector used is pBACT5.0 (FIG. 5, SEQ ID NO: 712).

Data set [2] has as its system pathogenic Gram-positive and Gram-negative bacteria. The following applies: cited from earlier work.
Another data set concerns ColV. The experiment in a line: Resistance to ColV conferred by plasmid-expressed immunity gene (vector selection marker). The following applies: gene expressed from plasmid pBACT5.0. The format is cell-based.
Description: as §1

Turning to “Enterococcus faecalis peptide: Enterococcus faecalis peptide, SEQ ID NO: 1 (WLPPAGLLGRCGRWFRPWLLWLQSGAQYKWLGNLFGLGPK; listed as Enterococcus faecalis)”, in the data set on Candida species, the “neutralizing activity against Candida species” value was “neutralizing activity”.
Consider botrycidin AJ1316, for which the antifungal activities entry in data set [1] is listed as “antifungal activities”.

B1: McbG: immunity to the bacteriocin B17, nucleic acid SEQ ID NO: 699 (protein, listed as Escherichia coli)
chain: MDIIEKRITKRHLSESELSGVNYYNCIFERIQLDNFNFRDCEFEKCRFVNCSIKNLKLNFFKLIDCEFKDCLLQGVNAADIMFPCTFSLVNCDLRFVDFISLRLQKSIFLSCRFRDCLFEETDLRKSDFTGSEFNNTEFRHSDLSHCDFSMTEGLDINPEINRILSIKIPQEAGLKILKRMGVVVGG
modifications: gene (1)..(564) McbG gene
As for B1, the “resistance to B17” value with bacteriocin B17 (gene expressed from plasmid, Ptac not induced, weak P24 promoter or pBACT2.0) is “sufficient to give the phenotype of resistance”.

B2: MccE: immunity to the bacteriocin C7, nucleic acid SEQ ID NO: 700 (protein, listed as Escherichia coli)
chain: MAQKITPSKIVKHARELIIKGIESGDNSFVIFDVDGALERLEHYRCQLKSFFPNSSIAYSYKSNNLAQWCQIISGKGLYAEVCSVDEMNLAKRDGFNRIVFDGPLKKTSELLKAIEIGALIEVDNIDECKRLNELCKLHKLTCRIHLRLSHYYDDNLSRFGLSESEAINLLEMLISKSEYLILDGFHLHVGSNLPNAEKICKAVIQYHELILRYMPDDGTLNLGSGIPADSFSASSDNPTPCPEVFFSSIYDTIKNCFGTVCDKWNYIFEPGRHLVEDFGYFIGKVISTKNRYGVKVAQTNIGINWIPSIRNWDHSFTLFHNHNHISDDKSDEYIIAGFNCFECDCLFPSVILPSNLSDYLFSVRGCGAYDMQTGNQWTRNLYAVYTITNDVVNISRIHRRELDFRKYDVSLTPSGIKVNDEITLLYPALKYAEELYLLINQNKINFIKSMAWPAFVNNISDSVSFIEQSMIDNQNEKALILFIKYKTKIAGVVSFNIIDHANKTAYIGYWLGANFQGKGIVTNAINKLIQEYGDSGVIKRFVIKCIVDNKKSNATALRCGFTLEGVLQKAEILNGVSYDQNIYSKVIG
modifications: gene (1)..(1770) MccE gene
As to B2, the “resistance to bacteriocin C7” value in the data set with bacteriocin C7 is recorded as “give resistance”.

B3: Ent35-MccV: hybrid bacteriocin: N-terminal glycine, Enterocin CRL35, three-glycine linker, C-terminal Microcin V, SEQ ID NO: 3 (protein)
chain: GKYYGNGVSCNKKGCSVDWGRAIGIIGNNSAANLATGGAAGWKSGGGASGRDIAMAIGTLSGQFVAGGIGAAAGGVAGGAIYDYASTHKPNPAMSPSGLGGTIKQKPEGIPSEAWNYAAGRLCNWSPNNLSDVCL
modifications: Hybrid bacteriocin Ent35-MccV
Take B3: in data set [2], the antimicrobial activity result is recorded as “displays antimicrobial activity”.

B4: Cvi: immunity gene giving resistance to ColV, SEQ ID NO: 709 (protein, listed as Escherichia coli)
chain: MDRKRTKLELLFAFIINATAIYIALAIYDCVFRGKDFLSMHTFCFSALMSAICYFVGDNYYSISDKIKRRSYENSDSK
modifications: gene (1)..(237) Cvi
As for B4, in the data set on ColV, the “resistance to ColV” value was “give resistance”.

B5: McbE/F: pumps of the B17 immunity structure, construct pSyn2-McbE/F SEQ ID NO: 703 (protein, UniProt P05528 1-241; P05529 1-247, looked up)
Protein McbE: MVTLKMAIIFLMEQIRTPFSLIWTIMSPTVLFFFLHFNEIELHYGDTAWLGKQISWFVGYISFSVVLFNYCLYLVGRRESGFIATFVHNMDGRLLFIRSQLIASLIMSILYVFFFILVVLTGFQASPDYQIVMIILKSIYINAFMMVSLTFMASFRVTFQTASTIYSVLITVCMVSGIVSLKYNEGIVYWINQVNPIAIYSTILQSDQELSLMTIFFYSIMLIISIISALTFKTEPVWSSQ
Protein McbF: MTIPLLEINSLSFSYKVNLPPVFNNLSLKIEQGELIGLLGENPAGKTTLFNLIRGGVSNYEGTLKRNFSGGELVSLPQVINLSGTLRNEEVLDLICCFNKLTKKQAWTDVNHKWNDNFFIRYDKIRRKRTYTVSYGEKRWLIISLMVTLCKNARLFLLDEPTVGIDIQYRMMLWELINKITADGKTVFFSTHIFDELTRDKIPFYMLSKNSINRYSDMSDFIQSNNETTQKRHLLKKLWEQETDTWI
For B5, the “toxicity of expression to the strain” value in the data set with bacteriocin B17 (pSyn2-McbE/F under Ptac) is recorded as “toxic”.

B6: C-terminal part of MccE: C-terminal portion of MccE, SEQ ID NO: 701 (amino acid SEQ ID NO: 706) (protein)
chain: FRKYDVSLTPSGIKVNDEITLLYPALKYAEELYLLINQNKINFIKSMAWPAFVNNISDSVSFIEQSMIDNQNEKALILFIKYKTKIAGVVSFNIIDHANKTAYIGYWLGANFQGKGIVTNAINKLIQEYGDSGVIKRFVIKCIVDNKKSNATALRCGFTLEGVLQKAEILNGVSYDQNIYSKVIG
modifications: C-terminal part of MccE protein
With B6, the results for the “resistance to bacteriocin C7” value with bacteriocin C7 and in the data set with bacteriocin C7 (listed as truncated MccE) were “sufficient to confer resistance; also recorded: give resistance” and “give resistance”, respectively.
